Earlier results as cited in patent publication US11884941B2, “Non-canonical lipoproteins with programmable assembly and architecture and method of making non-canonical lipoproteins” (SYRACUSE UNIVERSITY, priority 2020, dated 2024).
Like-named read-outs stand apart in the source and are kept apart here.

Tests used:
yeast NMT = target: T1, yeast NMT (Saccharomyces cerevisiae, UniProt P14743)
T1 sequence (P14743 1-455): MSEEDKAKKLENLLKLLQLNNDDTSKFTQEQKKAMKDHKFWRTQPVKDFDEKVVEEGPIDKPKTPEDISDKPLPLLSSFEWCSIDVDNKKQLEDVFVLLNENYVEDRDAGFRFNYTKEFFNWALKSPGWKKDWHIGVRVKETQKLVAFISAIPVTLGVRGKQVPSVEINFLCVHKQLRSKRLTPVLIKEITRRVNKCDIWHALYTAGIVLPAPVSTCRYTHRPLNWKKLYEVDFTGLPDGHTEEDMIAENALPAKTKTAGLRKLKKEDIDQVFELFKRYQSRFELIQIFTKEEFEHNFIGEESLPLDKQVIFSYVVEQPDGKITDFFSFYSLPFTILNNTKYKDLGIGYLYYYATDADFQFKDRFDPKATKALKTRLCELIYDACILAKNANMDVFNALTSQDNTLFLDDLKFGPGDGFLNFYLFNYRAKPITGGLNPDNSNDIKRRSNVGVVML

[1] = system: Pseudomonas acyl-CoA synthetase; details: in vitro

GARASVLS [octapeptide NMT substrate derived from Pr55gag polypeptide precursor of human immunodeficiency virus I (Devadas et al.)]
fold reduction of peptide affinity toward NMT:ADA-CoA complex compared to natural substrate (M-CoA) (yeast NMT): 7 fold | Km (yeast NMT; NMT with ADA-CoA bound, read-out: Km for the peptide, NMT:ADA-CoA): 66 µM | Km (yeast NMT; NMT with Myr-CoA bound, read-out: Km for the peptide, NMT:Myr-CoA complex): 9 µM

[N-]=[N+]=NCCCCCCCCCCCC(=O)O [ADA, 12-azidododecanoic acid]
Vm relative to Vm (M) (yeast NMT; transfer to N-terminal glycine in ternary complex): 1.5 ×Vm (M)

CC(C)(COP(=O)(O)OP(=O)(O)OCC1OC(n2cnc3c(N)ncnc32)C(O)C1OP(=O)(O)O)C(O)C(=O)NCCC(=O)NCCSC(=O)CCCCCCCCCCCN=[N+]=[N-] (stereo not drawn) [ADA-CoA]
amount of acyl-CoA produced compared to M-CoA [1]: 1.5-2 times

GLYASKLFSNL (substrate for transferase)
Km (yeast NMT; read-out: Km of recognition sequence for yeast NMT): ~0.08 µM
